Test results as given in paper PMC4397020.

Target: fibronectin (from human plasma) (human) (UniProt P02751)
Test: ELISA; as the adhesion assay on coated substrate, over a range of protein concentrations; KD estimated with the xy analysis subprogram of GraphPad Prism v. 5

UniProt P02751, sequence (P02751 other isoform, or with tags, fused parts or gaps, chain 1 of 2): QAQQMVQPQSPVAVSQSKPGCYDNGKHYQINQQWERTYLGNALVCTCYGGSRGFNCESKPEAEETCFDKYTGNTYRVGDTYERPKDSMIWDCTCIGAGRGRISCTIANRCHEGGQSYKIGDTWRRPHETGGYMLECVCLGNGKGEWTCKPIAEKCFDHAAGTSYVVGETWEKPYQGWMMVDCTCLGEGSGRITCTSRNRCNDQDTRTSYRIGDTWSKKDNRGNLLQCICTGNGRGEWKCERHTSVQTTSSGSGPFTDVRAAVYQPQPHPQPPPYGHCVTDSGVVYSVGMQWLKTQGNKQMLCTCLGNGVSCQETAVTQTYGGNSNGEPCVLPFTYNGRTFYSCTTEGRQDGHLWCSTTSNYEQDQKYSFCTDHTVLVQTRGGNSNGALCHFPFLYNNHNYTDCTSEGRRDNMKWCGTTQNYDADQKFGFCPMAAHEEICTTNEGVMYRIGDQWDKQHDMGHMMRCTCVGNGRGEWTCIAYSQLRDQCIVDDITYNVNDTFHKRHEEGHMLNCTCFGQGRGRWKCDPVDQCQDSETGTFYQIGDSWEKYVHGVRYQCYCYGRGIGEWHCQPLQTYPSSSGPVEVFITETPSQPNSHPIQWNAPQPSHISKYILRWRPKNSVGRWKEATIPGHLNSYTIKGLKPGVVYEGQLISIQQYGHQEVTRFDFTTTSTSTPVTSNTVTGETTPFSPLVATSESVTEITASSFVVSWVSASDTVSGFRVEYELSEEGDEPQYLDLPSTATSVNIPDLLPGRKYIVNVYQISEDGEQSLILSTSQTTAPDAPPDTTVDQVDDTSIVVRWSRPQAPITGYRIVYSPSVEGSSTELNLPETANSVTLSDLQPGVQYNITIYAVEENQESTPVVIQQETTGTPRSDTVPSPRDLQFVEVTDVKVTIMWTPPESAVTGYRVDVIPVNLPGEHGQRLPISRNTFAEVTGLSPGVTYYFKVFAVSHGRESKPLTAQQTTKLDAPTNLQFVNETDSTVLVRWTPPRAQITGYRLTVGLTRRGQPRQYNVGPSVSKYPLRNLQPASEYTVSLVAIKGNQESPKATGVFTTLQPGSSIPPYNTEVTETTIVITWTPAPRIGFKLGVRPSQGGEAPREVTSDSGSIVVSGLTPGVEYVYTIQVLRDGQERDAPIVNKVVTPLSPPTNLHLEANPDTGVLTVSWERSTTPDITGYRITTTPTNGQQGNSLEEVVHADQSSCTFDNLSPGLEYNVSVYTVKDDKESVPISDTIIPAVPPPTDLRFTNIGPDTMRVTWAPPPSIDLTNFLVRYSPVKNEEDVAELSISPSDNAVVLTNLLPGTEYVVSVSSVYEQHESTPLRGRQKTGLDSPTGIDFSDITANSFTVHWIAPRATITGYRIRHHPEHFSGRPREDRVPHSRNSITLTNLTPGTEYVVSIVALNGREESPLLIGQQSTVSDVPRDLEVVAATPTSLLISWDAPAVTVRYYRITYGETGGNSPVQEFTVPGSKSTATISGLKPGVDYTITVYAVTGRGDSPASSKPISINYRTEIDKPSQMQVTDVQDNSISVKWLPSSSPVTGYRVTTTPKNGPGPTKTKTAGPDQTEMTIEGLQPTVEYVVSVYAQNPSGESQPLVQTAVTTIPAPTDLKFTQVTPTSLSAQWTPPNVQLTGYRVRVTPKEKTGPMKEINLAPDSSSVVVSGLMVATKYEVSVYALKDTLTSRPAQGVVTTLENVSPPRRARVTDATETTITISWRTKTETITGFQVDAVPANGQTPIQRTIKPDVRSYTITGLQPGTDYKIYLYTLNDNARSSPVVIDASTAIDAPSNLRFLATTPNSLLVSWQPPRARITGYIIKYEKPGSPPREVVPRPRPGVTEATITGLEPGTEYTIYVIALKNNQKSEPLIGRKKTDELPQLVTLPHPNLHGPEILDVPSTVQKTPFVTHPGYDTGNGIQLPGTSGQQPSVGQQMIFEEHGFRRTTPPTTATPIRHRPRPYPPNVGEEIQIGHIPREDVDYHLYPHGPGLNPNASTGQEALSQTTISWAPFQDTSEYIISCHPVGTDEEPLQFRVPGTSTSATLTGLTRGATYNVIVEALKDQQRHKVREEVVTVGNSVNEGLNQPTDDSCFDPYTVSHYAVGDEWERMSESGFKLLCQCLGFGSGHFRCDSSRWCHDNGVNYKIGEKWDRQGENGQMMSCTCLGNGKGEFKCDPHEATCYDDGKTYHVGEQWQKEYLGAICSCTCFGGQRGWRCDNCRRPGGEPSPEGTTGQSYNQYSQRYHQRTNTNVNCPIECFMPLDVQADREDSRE
UniProt P02751, sequence (P02751 other isoform, or with tags, fused parts or gaps, chain 2 of 2): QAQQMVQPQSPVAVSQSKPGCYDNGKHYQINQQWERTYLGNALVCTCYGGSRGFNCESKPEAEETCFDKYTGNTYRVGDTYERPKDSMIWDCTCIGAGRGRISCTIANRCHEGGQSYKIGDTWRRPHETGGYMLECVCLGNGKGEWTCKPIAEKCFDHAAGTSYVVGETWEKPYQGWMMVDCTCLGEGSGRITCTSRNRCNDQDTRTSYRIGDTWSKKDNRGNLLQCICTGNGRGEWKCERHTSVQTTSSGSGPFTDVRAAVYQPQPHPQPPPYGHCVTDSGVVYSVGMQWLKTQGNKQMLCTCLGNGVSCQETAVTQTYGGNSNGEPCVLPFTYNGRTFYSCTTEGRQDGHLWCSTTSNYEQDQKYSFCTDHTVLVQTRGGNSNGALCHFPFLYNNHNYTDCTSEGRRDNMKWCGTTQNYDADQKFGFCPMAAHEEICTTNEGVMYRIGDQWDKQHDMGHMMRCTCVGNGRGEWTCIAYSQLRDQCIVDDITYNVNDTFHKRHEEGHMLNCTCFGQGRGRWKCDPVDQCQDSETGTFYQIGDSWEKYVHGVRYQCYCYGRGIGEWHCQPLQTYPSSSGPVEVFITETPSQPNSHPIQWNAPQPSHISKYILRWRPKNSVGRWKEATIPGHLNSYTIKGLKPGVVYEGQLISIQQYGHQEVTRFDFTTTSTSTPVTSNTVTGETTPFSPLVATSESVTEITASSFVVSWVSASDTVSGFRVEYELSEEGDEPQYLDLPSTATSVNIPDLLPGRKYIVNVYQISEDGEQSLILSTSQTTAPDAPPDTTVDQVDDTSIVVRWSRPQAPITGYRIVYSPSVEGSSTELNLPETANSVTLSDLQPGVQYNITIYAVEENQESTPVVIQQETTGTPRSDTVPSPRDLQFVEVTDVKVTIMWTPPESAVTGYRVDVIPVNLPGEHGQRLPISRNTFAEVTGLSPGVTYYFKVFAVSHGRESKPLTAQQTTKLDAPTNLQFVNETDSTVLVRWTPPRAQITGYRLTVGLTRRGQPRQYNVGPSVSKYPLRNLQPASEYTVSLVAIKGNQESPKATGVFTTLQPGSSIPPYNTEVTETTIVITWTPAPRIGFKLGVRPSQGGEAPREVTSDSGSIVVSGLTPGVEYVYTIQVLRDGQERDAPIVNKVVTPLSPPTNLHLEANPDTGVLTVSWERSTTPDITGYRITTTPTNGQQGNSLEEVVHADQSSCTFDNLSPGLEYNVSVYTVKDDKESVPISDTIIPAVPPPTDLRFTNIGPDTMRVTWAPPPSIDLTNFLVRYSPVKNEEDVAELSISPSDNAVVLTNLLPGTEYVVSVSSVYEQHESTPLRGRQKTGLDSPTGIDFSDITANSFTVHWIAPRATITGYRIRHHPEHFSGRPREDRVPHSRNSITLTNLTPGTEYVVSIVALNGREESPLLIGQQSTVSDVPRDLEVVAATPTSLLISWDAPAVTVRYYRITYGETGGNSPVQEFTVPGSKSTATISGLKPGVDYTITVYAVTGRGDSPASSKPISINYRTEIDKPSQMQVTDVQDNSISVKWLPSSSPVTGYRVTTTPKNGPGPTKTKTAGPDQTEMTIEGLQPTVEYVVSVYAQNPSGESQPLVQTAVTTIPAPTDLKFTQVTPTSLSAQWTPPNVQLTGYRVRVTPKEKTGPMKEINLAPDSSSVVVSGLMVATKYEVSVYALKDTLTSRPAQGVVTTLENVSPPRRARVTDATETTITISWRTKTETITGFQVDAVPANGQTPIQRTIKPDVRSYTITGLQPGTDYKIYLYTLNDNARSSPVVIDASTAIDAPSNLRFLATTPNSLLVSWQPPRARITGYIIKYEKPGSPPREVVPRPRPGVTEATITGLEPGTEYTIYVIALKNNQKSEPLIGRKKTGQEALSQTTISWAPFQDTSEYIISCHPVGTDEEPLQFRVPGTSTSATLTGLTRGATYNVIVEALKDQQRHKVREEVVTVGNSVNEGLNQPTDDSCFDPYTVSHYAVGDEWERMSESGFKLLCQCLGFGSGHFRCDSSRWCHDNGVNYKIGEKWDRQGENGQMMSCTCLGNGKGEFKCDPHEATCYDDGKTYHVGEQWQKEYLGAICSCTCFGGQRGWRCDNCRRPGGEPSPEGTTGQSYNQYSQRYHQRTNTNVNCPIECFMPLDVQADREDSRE

## MBP-OmpL1 (natural protein)
  Kd: 870 nM
